Data on 18 molecules can be found in patent publication WO2001072771A2.

Assay [1] deals with soluble IGF-1 receptor (human) (UniProt P08069). Nature of the assay: phage ELISA.
Assay [2] has as its target soluble human insulin receptor (IR-Fc) (human) (UniProt P06213). Nature of the assay: phage ELISA.
Assay [3] addresses soluble IGF-1 receptor (human) (UniProt P08069). Description: phage ELISA; non-fat milk blank 0.10.
In assay [4] the target is soluble human insulin receptor (IR-Fc) (human) (UniProt P06213). Nature of the assay: phage ELISA; non-fat milk blank 0.10.
In assay [5] the target is soluble IGF-1 receptor (human) (UniProt P08069). Description: phage ELISA; non-fat milk blank 0.09.
The target of assay [6] is soluble human insulin receptor (IR-Fc) (human) (UniProt P06213). Nature of the assay: phage ELISA; non-fat milk blank 0.09.
Assay [7] has as its target soluble IGF-1 receptor (human) (UniProt P08069). Description: phage ELISA; non-fat milk blank 0.11.
Assay [8] concerns the target soluble human insulin receptor (IR-Fc) (human) (UniProt P06213). Nature of the assay: phage ELISA; non-fat milk blank 0.11.

As to CCLLCRFQQNFYDWFVCQGISRLRPL [H2CA-2-B4-IGFR], the ratio over background in assay [1] was found to be 4.1; in assay [2] it was 1.1.

Regarding RCGRELYHSTFYDWFDRQVAGRTCPS [H2CA-1-A7-IGFR], the ratio over background was found to be 2.2 in assay [1] and 0.6 in assay [2].

In the case of CCTTEMWMDARDDPFYHKLSELVTGG [B6Hα-1-B5-IR], the values for the ratio over background in assay [1] and in assay [2] were 20.5 and 1, respectively.

As for HLADGQFHEKFYDWFERQISSRCNDC [H2CA-3-E11-IGFR], the results for the ratio over background in assay [1] and in assay [2] were 2.2 and 1, respectively.

LKDGFYDYFWQRLHLGS [NNRPγ-4-B11-IR]: the ratio over background worked out at 18.7 in assay [1] and 1.2 in assay [2].

Regarding VRGFQGGTVWPGYEWLRNAA [R20β-4-E8-IR], the values for the ratio over background in assay [1] and in assay [2] were 34.9 and 3.6, respectively. Besides, the absorbance (405 nm) in assay [3] came out at 2; in assay [4], 1.34.

With RGCNDDGGKGWSDDPFYHKLSELICGG [B6Hα-1-A2-IR], the results for the ratio over background in assay [1] and in assay [2] were 14.6 and 1, respectively.

For SMFVAGSDRWPGYGVLADWL [F2 phage], the absorbance (405 nm) came to 2.08 in assay [5] and 1.43 in assay [6].

Take QGGSASFYDAIDRLLRMRIGG [20E2A-4-F11-IGFR]: the ratio over background in assay [1] amounted to 18.8; in assay [2], 1.3.

As for RLFYCGIQALGANLGYSGCV [R20 -4-20A12-IR], the results for the ratio over background in assay [1] and in assay [2] were 39.9 and 2.4, respectively.

For GIISQSCPESFYDWFAGQVSDPWWCW [H2CA-4-G9-IGF], the ratio over background in assay [1] was found to be 9.5; in assay [2], 0.6.

With NYRRQVFNGNFYDWFDRQVFSLVTPG [H2CA-3-D8-IGFR], the ratio over background in assay [1] turned out to be 7.2; in assay [2] it was 1.8.

In the case of FYDAIDQLVRGSARAGGTRD [R20α-3-20E2-IR], the results for the ratio over background in assay [1] and in assay [2] were 39.9 and 3.1, respectively. Further, the figures for the absorbance (405 nm) in assay [7] and in assay [8] were 2.15 and 1.01, respectively.

In the case of QSPVGSSHEDFYDWFFRQVAQSGAHQ [H2CA-3-D6-IGFR], the results for the ratio over background in assay [1] and in assay [2] were 9 and 2.2, respectively.

With GVRAMSFYDALVSVLGLGPSG [20E2B-1-A6-IGFR], the ratio over background in assay [1] turned out to be 18.1; in assay [2], 1.1.

Consider LGYQEPFQQNFYDWFVRQVSGAENAG [H2CA-3-E8-IGFR], for which the ratio over background in assay [1] turned out to be 6.3; in assay [2] it was 2.2.

As to TFYSCLASLLTGTPQPNRGPWERCR [20C-3-G3-IGFR], the ratio over background in assay [1] amounted to 32.3; in assay [2], 1.2.

For TSEVQRRSQDNFYDWFVAQVA [A6S-3-E2-IR], the ratio over background came to 24.7 in assay [1] and 9.8 in assay [2].
